Data reported in patent publication US20160153985A1.

What was measured:
[1] = molecular target: pure human iC3b (Complement Technology, A115) (human) (UniProt P01024); assay: sandwich ELISA, capture A209 (Example 5), goat anti-C3-HRP; TABLE 6 well F3, 20% vitreous
[2] = molecular target: pure human iC3b (Complement Technology, A115) (human) (UniProt P01024); assay: sandwich ELISA, capture A209 (Example 5), goat anti-C3-HRP; TABLE 6 well A2, blocker
[3] = molecular target: pure human iC3b (Complement Technology, A115) (human) (UniProt P01024); assay: sandwich ELISA, capture A209 (Example 5), goat anti-C3-HRP; TABLE 7, iC3b in blocker
[4] = molecular target: pure human iC3b (Complement Technology, A115) (human) (UniProt P01024); assay: sandwich ELISA, capture A209 (Example 5), goat anti-C3-HRP; TABLE 6 well B9, blocker
[5] = molecular target: pure human iC3b (Complement Technology, A115) (human) (UniProt P01024); assay: sandwich ELISA, capture A209 (Example 5), goat anti-C3-HRP; TABLE 6 well D9, 30% vitreous
[6] = molecular target: pure human iC3b (Complement Technology, A115) (human) (UniProt P01024); assay: sandwich ELISA, capture A209 (Example 5), goat anti-C3-HRP; TABLE 6 well C5, 30% vitreous
[7] = molecular target: pure human iC3b (Complement Technology, A115) (human) (UniProt P01024); assay: sandwich ELISA, capture A209 (Example 5), goat anti-C3-HRP; TABLE 6 well H4, 10% vitreous
[8] = molecular target: pure human iC3b (Complement Technology, A115) (human) (UniProt P01024); assay: sandwich ELISA, capture A209 (Example 5), goat anti-C3-HRP; TABLE 6 well F6, 20% vitreous
[9] = molecular target: pure human iC3b (Complement Technology, A115) (human) (UniProt P01024); assay: sandwich ELISA, capture A209 (Example 5), goat anti-C3-HRP; TABLE 6 well B2, blocker
[10] = molecular target: pure human iC3b (Complement Technology, A115) (human) (UniProt P01024); assay: sandwich ELISA, capture A209 (Example 5), goat anti-C3-HRP; TABLE 6 well A4, blocker
[11] = molecular target: pure human iC3b (Complement Technology, A115) (human) (UniProt P01024); assay: sandwich ELISA, capture A209 (Example 5), goat anti-C3-HRP; TABLE 6 well H6, 10% vitreous
[12] = molecular target: pure human iC3b (Complement Technology, A115) (human) (UniProt P01024); assay: sandwich ELISA, capture A209 (Example 5), goat anti-C3-HRP; TABLE 6 well C3, 30% vitreous
[13] = molecular target: pure human iC3b (Complement Technology, A115) (human) (UniProt P01024); assay: sandwich ELISA, capture A209 (Example 5), goat anti-C3-HRP; TABLE 6 well E8, 20% vitreous
[14] = molecular target: pure human iC3b (Complement Technology, A115) (human) (UniProt P01024); assay: sandwich ELISA, capture A209 (Example 5), goat anti-C3-HRP; TABLE 6 well D4, 30% vitreous
[15] = molecular target: pure human iC3b (Complement Technology, A115) (human) (UniProt P01024); assay: sandwich ELISA, capture A209 (Example 5), goat anti-C3-HRP; TABLE 6 well B8, blocker
[16] = molecular target: pure human iC3b (Complement Technology, A115) (human) (UniProt P01024); assay: sandwich ELISA, capture A209 (Example 5), goat anti-C3-HRP; TABLE 6 well F8, 20% vitreous
[17] = molecular target: pure human iC3b (Complement Technology, A115) (human) (UniProt P01024); assay: sandwich ELISA, capture A209 (Example 5), goat anti-C3-HRP; TABLE 6 well D8, 30% vitreous
[18] = molecular target: pure human iC3b (Complement Technology, A115) (human) (UniProt P01024); assay: sandwich ELISA of Example 5, iC3b concentration labeled 0.0125 in 20% human vitreous, duplicate 2
[19] = molecular target: pure human iC3b (Complement Technology, A115) (human) (UniProt P01024); assay: sandwich ELISA, capture A209 (Example 5), goat anti-C3-HRP; TABLE 6 well H9, 10% vitreous

UniProt P01024, sequence (P01024 23-667 limits assumed, chain 1 of 3): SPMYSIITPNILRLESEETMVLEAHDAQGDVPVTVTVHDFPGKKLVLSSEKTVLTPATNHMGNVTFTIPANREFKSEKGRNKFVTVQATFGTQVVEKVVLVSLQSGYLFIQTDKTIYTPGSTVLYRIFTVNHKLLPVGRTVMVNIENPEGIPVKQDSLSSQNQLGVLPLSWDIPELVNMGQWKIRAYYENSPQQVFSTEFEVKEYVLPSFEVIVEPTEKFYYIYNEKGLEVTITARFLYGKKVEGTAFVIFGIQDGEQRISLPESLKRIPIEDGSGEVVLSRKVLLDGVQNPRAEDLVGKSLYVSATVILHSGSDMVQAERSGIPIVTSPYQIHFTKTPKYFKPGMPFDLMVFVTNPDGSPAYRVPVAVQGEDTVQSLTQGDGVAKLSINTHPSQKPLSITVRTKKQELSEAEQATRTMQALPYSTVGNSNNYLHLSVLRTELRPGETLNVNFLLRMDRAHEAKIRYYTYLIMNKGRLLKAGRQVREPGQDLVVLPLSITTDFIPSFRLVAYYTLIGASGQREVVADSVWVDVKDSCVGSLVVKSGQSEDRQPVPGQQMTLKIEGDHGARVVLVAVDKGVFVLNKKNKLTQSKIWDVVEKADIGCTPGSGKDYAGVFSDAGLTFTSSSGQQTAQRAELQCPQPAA
UniProt P01024, sequence (P01024 749-1303 limits assumed, chain 2 of 3): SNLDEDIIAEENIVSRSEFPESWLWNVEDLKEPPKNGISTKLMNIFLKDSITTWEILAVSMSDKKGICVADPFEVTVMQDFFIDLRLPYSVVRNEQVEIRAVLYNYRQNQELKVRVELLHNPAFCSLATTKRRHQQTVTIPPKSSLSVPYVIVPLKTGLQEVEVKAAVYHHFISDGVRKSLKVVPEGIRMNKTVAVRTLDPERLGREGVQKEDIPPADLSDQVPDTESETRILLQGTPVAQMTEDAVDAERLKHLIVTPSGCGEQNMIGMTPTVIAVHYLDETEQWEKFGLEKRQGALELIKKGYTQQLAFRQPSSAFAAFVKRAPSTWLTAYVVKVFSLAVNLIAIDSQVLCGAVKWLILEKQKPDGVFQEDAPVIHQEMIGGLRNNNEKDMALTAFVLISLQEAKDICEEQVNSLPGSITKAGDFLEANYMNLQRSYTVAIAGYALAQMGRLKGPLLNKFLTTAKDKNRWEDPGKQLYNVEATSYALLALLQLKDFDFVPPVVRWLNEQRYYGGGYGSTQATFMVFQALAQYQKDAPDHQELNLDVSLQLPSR
UniProt P01024, sequence (P01024 1321-1663 limits assumed, chain 3 of 3): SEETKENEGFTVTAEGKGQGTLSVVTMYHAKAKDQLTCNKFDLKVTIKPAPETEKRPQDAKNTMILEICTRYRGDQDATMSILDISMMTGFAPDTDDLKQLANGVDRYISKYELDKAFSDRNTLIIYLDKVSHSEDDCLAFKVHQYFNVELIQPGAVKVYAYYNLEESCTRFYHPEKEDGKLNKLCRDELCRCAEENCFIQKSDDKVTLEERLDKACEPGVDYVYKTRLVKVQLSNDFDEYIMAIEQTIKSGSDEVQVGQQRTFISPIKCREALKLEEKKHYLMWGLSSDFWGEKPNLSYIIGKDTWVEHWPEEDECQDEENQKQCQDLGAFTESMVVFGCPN

- raw A450 at iC3b 0.5 ug/ml [1]: 0.45 OD
- raw A450 at iC3b 1 ug/ml [2]: 0.371 OD
- A450 minus matrix average at iC3b 0.016 ug/ml [3]: 0.011 OD
- A450 minus matrix average at iC3b 0.031 ug/ml [3]: 0.021 OD
- A450 minus matrix average at iC3b 0.063 ug/ml [3]: 0.037 OD
- A450 minus matrix average at iC3b 0.125 ug/ml [3]: 0.073 OD
- A450 minus matrix average at iC3b 0.25 ug/ml [3]: 0.138 OD
- A450 minus matrix average at iC3b 0.5 ug/ml [3]: 0.232 OD
- A450 minus matrix average at iC3b 1 ug/ml [3]: 0.328 OD
- raw A450 at iC3b 0.0078 ug/ml [4]: 0.032 OD
- raw A450 at iC3b 0.0078 ug/ml [5]: 0.362 OD
- raw A450 at iC3b 0.125 ug/ml [6]: 0.385 OD
- raw A450 at iC3b 0.25 ug/ml [7]: 0.283 OD
- raw A450 at iC3b 0.063 ug/ml [8]: 0.355 OD
- raw A450 at iC3b 1 ug/ml [9]: 0.344 OD
- raw A450 at iC3b 0.25 ug/ml [10]: 0.169 OD
- raw A450 at iC3b 0.063 ug/ml [11]: 0.23 OD
- raw A450 at iC3b 0.5 ug/ml [12]: 0.406 OD
- raw A450 at iC3b 0.016 ug/ml [13]: 0.321 OD
- raw A450 at iC3b 0.25 ug/ml [14]: 0.433 OD
- raw A450 at iC3b 0.016 ug/ml [15]: 0.038 OD
- raw A450 at iC3b 0.016 ug/ml [16]: 0.318 OD
- raw A450 at iC3b 0.016 ug/ml [17]: 0.355 OD
- absorbance A450, raw [18]: 0.384 A450
- raw A450 at iC3b 0.0078 ug/ml [19]: 0.207 OD
Substance: mouse anti-iC3b antibody A209 (Quidel)
